According to patent US6391637:

How the values were obtained:
[1] = target: CD40/Fc fusion protein (human) (UniProt P25942); test: BIAcore biosensor; CD40/Fc captured on the chip; second experiment; K2 (site 2); site 1 not detected
[2] = target: CD40/Fc fusion protein (human) (UniProt P25942); test: BIAcore biosensor; CD40/Fc captured on the chip; second experiment
[3] = target: CD40/Fc fusion protein (human) (UniProt P25942); test: BIAcore biosensor; CD40/Fc captured on the chip; first experiment
[4] = target: CD40/Fc fusion protein (human) (UniProt P25942); test: BIAcore biosensor; CD40/Fc captured on the chip; second experiment; K2 (site 2)
[5] = target: CD40/Fc fusion protein (human) (UniProt P25942); test: BIAcore biosensor; CD40/Fc captured on the chip; first experiment; K2 (site 2)
[6] = target: CD40/Fc fusion protein (human) (UniProt P25942); test: BIAcore biosensor; CD40/Fc captured on the chip; second experiment; K1 (site 1)
[7] = target: CD40/Fc fusion protein (human) (UniProt P25942); test: BIAcore biosensor; CD40/Fc captured on the chip; first experiment; K1 (site 1)
[8] = target: CD40/Fc fusion protein (human) (UniProt P25942); test: BIAcore biosensor; CD40/Fc captured by goat anti-human IgG1 Fc on the chip, CD40-L construct at increasing concentrations; first experiment
[9] = target: CD40 on cells that express CD40 (UniProt P25942); test: cell-based or functional assay
Chain of CD40 on cells that express CD40 (P25942 21-277 limits assumed): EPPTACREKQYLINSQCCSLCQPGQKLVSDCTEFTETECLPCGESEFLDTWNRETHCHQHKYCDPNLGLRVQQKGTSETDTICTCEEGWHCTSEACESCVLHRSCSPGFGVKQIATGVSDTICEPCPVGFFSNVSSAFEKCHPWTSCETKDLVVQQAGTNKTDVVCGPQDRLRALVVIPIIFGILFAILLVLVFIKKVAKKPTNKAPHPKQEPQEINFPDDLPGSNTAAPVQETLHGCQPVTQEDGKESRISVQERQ

Chain of trimeric human CD40-L (oligomerizing zipper fusion, Example 15) (P29965 51-261 limits assumed): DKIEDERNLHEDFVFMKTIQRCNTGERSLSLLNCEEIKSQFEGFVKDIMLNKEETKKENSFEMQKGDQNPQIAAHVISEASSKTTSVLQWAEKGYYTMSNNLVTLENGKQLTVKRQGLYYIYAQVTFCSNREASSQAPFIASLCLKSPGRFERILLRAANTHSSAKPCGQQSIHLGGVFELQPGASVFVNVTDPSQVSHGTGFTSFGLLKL
Chain of CD40/Fc fusion protein (human) (P25942 21-193): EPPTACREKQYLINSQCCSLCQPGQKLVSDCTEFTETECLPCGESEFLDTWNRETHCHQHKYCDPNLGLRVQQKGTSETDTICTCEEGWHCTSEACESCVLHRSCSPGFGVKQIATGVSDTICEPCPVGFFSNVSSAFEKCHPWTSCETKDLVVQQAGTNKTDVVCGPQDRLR

| Site2 (mol/mol CD40/Fc) (mol/mol CD40/Fc) [2] | Site2 (mol/mol CD40/Fc) (mol/mol CD40/Fc) [3] | Ka [5] [M⁻¹] | Ka [7] [M⁻¹] | Substance | Ka [1] [M⁻¹] | further results |
| --- | --- | --- | --- | --- | --- | --- |
| 1.27 | – | – | – | monomeric human CD40-L, preparation #2 (ligand) | 1.1e+07 | – |
| 0.41 | 0.68 | 7.5e+07 | 5e+09 | trimeric human CD40-L (oligomerizing zipper fusion, Example 15) (from UniProt P29965 51-261) (ligand) | – | Ka [4]: 2.6e+07 M⁻¹; Ka [6]: 6.6e+08 M⁻¹; Site1 (mol/mol CD40/Fc) (mol/mol CD40/Fc) [8]: 0.04; Site1 (mol/mol CD40/Fc) (mol/mol CD40/Fc) [2]: 0.26 |
| – | 0.44 | 1.6e+08 | 6e+10 | trimeric murine CD40-L (oligomerizing zipper fusion) (ligand) | – | Site1 (mol/mol CD40/Fc) (mol/mol CD40/Fc) [3]: 0.02 |
| – | – | – | – | wild type CD40 ligand/zipper domain fusion protein (WT) expressed in yeast | – | B-cell proliferation (U/µg), Experiment 1; WT [9]: 77 U/µg; B-cell proliferation (U/µg), Experiment 2; WT [9]: 15 U/µg |

| Substance | Site2 (mol/mol CD40/Fc) (mol/mol CD40/Fc) [2] | Site2 (mol/mol CD40/Fc) (mol/mol CD40/Fc) [3] | Ka [5] [M⁻¹] | Ka [7] [M⁻¹] | Ka [1] [M⁻¹] | further results |
| --- | --- | --- | --- | --- | --- | --- |
| monomeric human CD40-L, preparation #1 (ligand) | 1.2 | – | – | – | 4.6e+07 | – |
